{"source": "patent US12472269B2", "about": "“Liver-specific inducible promoters and methods of use thereof” (ASKBIO INC., priority 2019, dated 2025)", "key": {"[1]": {"tested_on": "Huh7 cell line stably expressing human CAR", "experiment": "Induction of PBREM variants by CITCO and flavone in Huh7 cell line stably expressing human CAR", "format": "cell-based", "source_text": "(§1) In the earlier examples, variants of the promoters used contained a mouse PBREM element. To confirm our expectation that the human PBREM element could also be used, we also assessed the inducibility of the human PBREM; this is potentially relevant because one aim of this project is to provide inducible promoters for use in human gene therapy, and the human sequence may have some advantages. In addition, we also assessed human and mouse hybrids of the PBREM element to determine if we could modulate or improve the inducibility and background level of the promoters. Such new combinations would not be found in nature in any context, and would likely to have novel traits, e.g. background and induction level. The constructs were tested in the PGL4.10 backbone as previously described, and are listed below in Table 2. These were: Human NR1×3-Min TK (3× human NR1 region with MinTK minimal promoter); Human PBREM-minTK (human PBREM with MinTK minimal promoter); hNR1-mNF1-hNR2-Min TK (Human Mouse Human hybrid with MinTK minimal promoter); hNR1-mNFI mNR2-Min TK (Human Mouse Mouse hybrid with MinTK minimal promoter); mNR1-hNF1-mNR2-Min TK (Mouse Human Mouse hybrid with MinTK minimal promoter); mNR1-hNF1-hNR2-Min TK (Mouse Human Human hybrid with MinTK minimal promoter); hPB-SV40 (human PBREM with SV40 minimal promoter); and MHM-SV40 (Mouse Human Mouse hybrid with SV40 minimal promoter)—SEQ ID NOs: 59 to 66, respectively.\n(§2) These constructs were tested in the Huh7 stable cell line and primary hepatocytes as previously described. In addition, to testing the constructs with the traditional human CAR activator CITCO we also tested the natural compound flavone. […] CITCO has been predicted to be relatively unstable in vivo, and there is no data available for its safety of use in humans, and is therefore preferred for use only in tissue culture. Furthermore, the in vivo results presented above used phenobarbital as the inducer. In some contexts the use of phenobarbital may be undesirable, even if at 10× less than the recommended dose (which appears to be possible in view of the data above). Therefore, flavone may be a more desirable inducer that mitigates any safety or regulatory issues.\n(§3) Expression and induction from these promoters was assessed using both CITCO and flavone in both the Huh7 CAR expressing stable cell line and primary hepatocytes as previously described."}, "human CAR": {"molecular_target": "T1, human CAR (Homo sapiens, UniProt Q14994)", "T1 sequence (Q14994 1-352)": "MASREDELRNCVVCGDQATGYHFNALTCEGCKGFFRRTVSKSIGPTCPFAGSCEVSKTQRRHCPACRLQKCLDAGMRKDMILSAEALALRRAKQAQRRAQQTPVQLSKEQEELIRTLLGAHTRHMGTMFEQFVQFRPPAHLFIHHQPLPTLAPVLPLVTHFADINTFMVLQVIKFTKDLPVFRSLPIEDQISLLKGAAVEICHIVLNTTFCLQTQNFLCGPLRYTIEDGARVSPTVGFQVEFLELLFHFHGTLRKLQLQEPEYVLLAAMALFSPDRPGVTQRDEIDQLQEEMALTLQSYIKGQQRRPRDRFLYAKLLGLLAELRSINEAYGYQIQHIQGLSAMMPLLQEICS", "details": "cited from earlier work"}, "primary hepatocytes": {"tested_on": "primary hepatocytes", "experiment": "Induction of PBREM variants by CITCO and flavone in primary hepatocytes", "format": "cell-based, human", "source_text": "as §1, §2, §3"}, "CD1 male mice": {"tested_on": "CD1 male mice", "experiment": "In vivo bioluminescence imaging of mice injected with AAV9 constructs, induction by phenobarbital", "experimental": "• Seed HEK 293-AAV cells in 15 cm plates. To be 70-80% confluent on the day of transfection • Final volume on each plate: 15 ml Day 2: Prepare Transfection Mix: • DNA mix/plate: pDG9 (Packaging plasmid for AAV9): 10.5 μg/pHGTI (Ad. Helper plasmid): 31.5 μg/Vector plasmid: 10.5 μg/Prepare in serum free DMEM/Optimem • Transfer mix/plate: PEI: 125 μl/Prepare in serum free DMEM/Optimem • Add DNA mix into transfection mix. Mix and leave at room temperature for 15-20 mins. • Add 3 ml of transfection mix to each plate drop-wise and gently distribute. Incubate for 24 h. Day 3: • Replace media with 15 ml DMEM supplemented with P/S and 2% FCS. Leave for 48 h. Day 5: • Collect supernatant and pool in 50 ml tubes, 25 ml each tube. Store at −20° C. • Collect cells: Add 5 ml of PBS to each plate→scrape and collect in 50 ml tubes. • To wash plates, add another 1 ml of PBS and collect. • Spin at 1500 rpm for 5 mins. • Remove supernatant and resuspend pelleted cells in 1 ml/plate TD lysis buffer→pool • Store at −80′C. Endonuclease Treatment Cells: • Freeze and thaw pellets 5 times→˜20 mins at 37° C. then ˜20 mins in dry ice (or −80° C.). • Add 25 μl/ml cells of 20% Deoxycholate (or 50 μl/ml of 10% Deoxycholate). • Add 8 μl/ml cells of benzonase. • Incubate at 37° C. for 30 mins. • Spin at 4 Krpm for 30 mins. • Filter supernatant using […] filters. • Store at 4° C. for up to 24 h. Supernatant: • Add 2.5 μl/25 ml supernatant of benzonase. • Add 50 μl/25 ml supernatant of MgSO4. • Incubate at 37° C. for 30 mins. • Spin at 4 Krpm for 30 mins. • Filter supernatant using […] filters. • Store at 4′C for up to 24 h. Hplc Purification • Place both lines in 20% ETOH→template→system wash • Put line A in PBS and line B in Glycine→template→system wash • Place the column in the machine→manual run→flowrate: 5 ml/min→Run for 25 ml or until the UV line is flat. • Prepare FACS tubes (10 for cells and more for supernatant): add 30 μl/tube Tris→put in the machine to collect vectors. • Place the waste lines in a separate tube to be able to run them again through the column. • Run samples (flowrate low, depending on how fast the system and how concentrated the sample is; for cells it is slower, for supernatant it is higher). • After running the waste through the column, wash with PBS→flowrate: 5 ml/min until the UV line is flat. • Set→fraction size: 1 ml; Flowrate: 1 ml/min; concentration % B: 100%→run. • Start collecting: Look for the peak. The peak indicates vector purification. Mark the tubes containing these vectors. • Save programme before exiting. • Wash with PBS→75 ml, 5 ml/min • Wash with Na3PO4 (to store the column in)→75 ml, 5 ml/min • Remove column and store at 4° C. • Wash the machine with PBS→template→system wash • Wash the machine with 20% ETOH→template→system wash • Put both lines in 20% ETOH and shut down • Add 2 L of PBS into a big bucket and put the Dialysis cassette (Side-A-Lyzer; Thermo scientific) to prime. • Collect the vectors from the marked FACS tubes using a syringe and needle and add into the dialysis cassette→remove excess air from the membrane, carefully place the rubber on top of the cassette and let it float in the PBS-containing bucket→leave over night at room temperature on a slow rotating rotor. Next Day: • Prime membrane by adding 5 ml PBS onto a centrifugal filter (Amico Ultra 15; MERCK)→spin for 5 mins at 4 Krpm • Remove excess PBS from inside the membrane. • Take vectors out from the cassette and load onto the membrane→spin for 5 mins at 4 Krpm • Wash the membrane with the vectors inside few times, then collect into 2 ml centrifuge tube filter 0.22 μM (Spin-X; COSTAR) • Spin for 3 mins at 13 Krpm. • Remove filter and aliquot: 1×100 μl (for injection), the rest in 10-2 μl aliquots. • Store in −80° C. • Virus quantification was performed using qRT-PCR with primers and probes for the luciferase gene. Mice Experiment […]"}, "AXOL ARE-hepatocytes": {"tested_on": "AXOL ARE-hepatocytes", "experiment": "Luciferase expression from PBREM promoters in AXOL ARE-hepatocytes, induction by CITCO", "format": "cell-based, human", "details": "induction with CITCO, mean of 3 biological replicates"}, "[2]": {"tested_on": "Huh7 and ARE primary cells", "experiment": "Effect of AAV ITRs: pAAV constructs transfected into Huh7 and ARE primary cells, compared with pGL4.10", "format": "cell-based, human", "details": "mean of 3 biological replicates", "source_text": "Following from Example 3, it was decided to take PB1-MinTK and PB1-2-MinTk forward for in vivo studies. To facilitate this the two aforementioned constructs were cloned into pAAV vector (Takara, Clontech) to allow for the preparation of AAV viruses. The inserts where cloned using restriction digest of the pAAV plasmid and PCR amplification of the original pGL4.10 constructs.\nWe investigated the effect of the Inverted Terminal Repeats (ITRs) on the activity of the promoters. This was done as we have observed interference from the AAV ITRs in other projects. To this end, the pAAV-PB1-MinTk and pAAV-PB1-2-MinTk were transfected into Huh7 and ARE primary cells as previously described and their activity assessed."}, "AXOL ARE hepatocytes": {"tested_on": "AXOL ARE hepatocytes", "experiment": "Luciferase expression from pAAV constructs in AXOL ARE hepatocytes without CITCO, with CITCO and after CITCO withdrawal", "format": "cell-based, human", "details": "pAAV vector", "experimental": "Luciferase expression from the PB1-MinTK and PB1-2-MinTK constructs in the pAAV vector in AXOL ARE hepatocytes is inducible by CITCO (1 μM) but reduces after removing CITCO as shown in FIG. 5."}, "[3]": {"details": "monomers compared with PB1 (FIG. 9), multimers with PB1-2 (FIG. 11)"}, "[4]": {"details": "monomers compared with PB1 (FIG. 10), multimers with PB1-2 (FIG. 12)"}, "[5]": {"details": "AAV9, phenobarbital intraperitoneally"}}}
{"molecule": "O=c1cc(-c2ccccc2)oc2ccccc12", "note": "[flavone, reference compound]", "values": [{"measurement": "concentration demonstrated suitable to induce expression", "setting": "[1]; administered to cells", "result": 30, "unit": "µM"}, {"measurement": "activation of human CAR", "setting": "human CAR", "result": "previously been reported to activate human CAR"}]}
{"molecule": "Clc1cnc(Oc2ccc(Oc3ncc(Cl)cc3Cl)cc2)c(Cl)c1", "note": "[TCPOBOP, 1,4-Bis[2-(3,5-dichloropyridyloxy)]benzene]", "values": [{"measurement": "activation of human CAR", "setting": "human CAR", "result": "does not activate human CAR"}]}
{"molecule": "MHM hybrid: Mouse Human Mouse hybrid PBREM element (SEQ ID NO: 74), tested with Min-Tk and SV40 minimal promoters (DNA TCTGTACTTTCCTGACCTTGAAGAGGTGGCACCATCAACTTGCCTGACACC; expressed or natural sequence)", "values": [{"measurement": "induction", "setting": "[1]; CITCO and flavone", "result": "good induction"}, {"measurement": "background", "setting": "[1]; [3]", "result": "lower background"}, {"measurement": "overall activity / expression level", "setting": "[1]; [3]", "result": "lower overall activity"}, {"measurement": "induction", "setting": "primary hepatocytes; CITCO and flavone", "result": "good induction"}, {"measurement": "background", "setting": "primary hepatocytes; [4]", "result": "lower background"}, {"measurement": "overall activity / expression level", "setting": "primary hepatocytes; [4]", "result": "lower overall activity"}]}
{"molecule": "hPB: human PBREM element (SEQ ID NO: 2), tested with Min-TK and SV40 minimal promoters (DNA ACTGTACTTTCCTGACCCTGAAGAGGTGGCAGCATGGACTTTCCTGAACCA; expressed or natural sequence; listed as Homo sapiens)", "values": [{"measurement": "performance (inducibility and background) compared with PB1", "setting": "[1]; CITCO and flavone, FIG. 9", "result": "almost identical manner to the mouse PBREM (PB1)"}, {"measurement": "performance (inducibility and background) compared with PB1", "setting": "primary hepatocytes; CITCO and flavone, FIG. 10", "result": "almost identical manner to the mouse PBREM (PB1)"}]}
{"molecule": "PB1-2-MinTK: promoter: 3×PBREM and min-TK promoter, SEQ ID NO: 11 (nucleic acid, PB1-2-MinTk (3xPBREM)) DNA: TCTGTACTTTCCTGACCTTGGCACAGTGCCACCATCAACTTGCCTGACACCCATTACTCGCATCCATTCTCTCTGTACTTTCCTGACCTTGGCACAGTGCCACCATCAACTTGCCTGACACCGCACTGAAGGTCCTCAATCGTCTGTACTTTCCTGACCTTGGCACAGTGCCACCATCAACTTGCCTGACACCGCTGGGAGTTCGTAGACGGAGATCCGGCCCCGCCCAGCGTCTTGTCATTGGCGAATTCGAACACGCAGATGCAGTCGGGGCGGCGCGGTCCGAGGTCCACTTCGCATATTAAGGTGACGCGTGTGGCCTCGAACACCGAGCGACCCTGCAGCGACCCGCTTAACAGCGTCAACAGCGTGCCGCAGATCTCGAGGAGCTTGGCGAGATTTTCAGGAGCTAAGGAAGCTAAAC", "values": [{"measurement": "luciferase expression before induction", "setting": "CD1 male mice; 0 hrs", "result": "no expression of the luciferase gene"}, {"measurement": "time at which induction is complete", "setting": "CD1 male mice; [5]", "result": 48, "unit": "h"}, {"measurement": "time of maximal activity after induction", "setting": "CD1 male mice; [5]", "result": 24, "unit": "h"}, {"measurement": "tissue distribution of luciferase expression", "setting": "CD1 male mice; AAV9 via tail vein", "result": "confined to the liver"}, {"measurement": "induced luciferase expression as a ratio to CMV-IE", "setting": "AXOL ARE-hepatocytes", "result": 4.1}, {"measurement": "induction of luciferase expression across pGL4.10 and pAAV vectors and cell types", "setting": "[2]", "result": "comparable across vectors and cell types"}, {"measurement": "luciferase expression with CITCO", "setting": "AXOL ARE hepatocytes; CITCO (1 μM)", "result": "inducible"}, {"measurement": "activity of the promoter after removal of CITCO", "setting": "AXOL ARE hepatocytes; CITCO withdrawal", "result": "almost baseline levels"}]}
{"molecule": "Human NR1x3-MinTK: 3× human NR1 region with MinTK minimal promoter, SEQ ID NO: 59 (nucleic acid, Human NR1x3-Min TK) DNA: ACTGTACTTTCCTGACCCTGAAGAGACTGTACTTTCCTGACCCTGAAGAGACTGTACTTTCCTGACCCTGAAGAGGATCCGGCCCCGCCCAGCGTCTTGTCATTGGCGAATTCGAACACGCAGATGCAGTCGGGGCGGCGCGGTCCGAGGTCCACTTCGCATATTAAGGTGACGCGTGTGGCCTCGAACACCGAGCGACCCTGCAGCGACCCGCTTAACAGCGTCAACAGCGTGCCGCAGATCTCGAGGAGCTTGGCGAGATTTTCAGGAGCT", "values": [{"measurement": "induction", "setting": "[1]; CITCO and flavone", "result": "only induced in the stable cell line"}, {"measurement": "background", "setting": "[1]; [3]", "result": "relatively high background"}, {"measurement": "induction", "setting": "primary hepatocytes; CITCO and flavone", "result": "less so in the primary cells"}, {"measurement": "background", "setting": "primary hepatocytes; [4]", "result": "relatively high background"}]}
